Reference: patent US20250163167A1 (SYNTHEKINE, published 2025)

T1: human IL-10 receptor (hIL-10R alpha and beta chains) on HEK-Blue IL-10 reporter cells (human, UniProt Q13651 22-578; Q08334 20-325)
T1 sequence 1: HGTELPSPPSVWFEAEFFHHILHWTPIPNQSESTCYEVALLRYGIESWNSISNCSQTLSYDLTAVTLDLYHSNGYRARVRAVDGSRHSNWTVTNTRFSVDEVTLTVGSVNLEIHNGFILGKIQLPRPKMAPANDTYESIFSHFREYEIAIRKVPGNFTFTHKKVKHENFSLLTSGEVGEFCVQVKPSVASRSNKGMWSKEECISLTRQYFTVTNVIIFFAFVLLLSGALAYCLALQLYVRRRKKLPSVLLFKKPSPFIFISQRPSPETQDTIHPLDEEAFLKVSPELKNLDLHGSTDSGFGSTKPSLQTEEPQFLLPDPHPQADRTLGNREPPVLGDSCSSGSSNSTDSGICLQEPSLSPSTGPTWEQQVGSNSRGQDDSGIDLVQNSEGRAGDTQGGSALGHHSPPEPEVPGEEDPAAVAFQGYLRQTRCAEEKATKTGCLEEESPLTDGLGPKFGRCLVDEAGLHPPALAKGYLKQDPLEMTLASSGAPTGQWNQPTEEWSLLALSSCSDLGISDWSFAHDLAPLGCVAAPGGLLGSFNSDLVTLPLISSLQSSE
T1 sequence 2: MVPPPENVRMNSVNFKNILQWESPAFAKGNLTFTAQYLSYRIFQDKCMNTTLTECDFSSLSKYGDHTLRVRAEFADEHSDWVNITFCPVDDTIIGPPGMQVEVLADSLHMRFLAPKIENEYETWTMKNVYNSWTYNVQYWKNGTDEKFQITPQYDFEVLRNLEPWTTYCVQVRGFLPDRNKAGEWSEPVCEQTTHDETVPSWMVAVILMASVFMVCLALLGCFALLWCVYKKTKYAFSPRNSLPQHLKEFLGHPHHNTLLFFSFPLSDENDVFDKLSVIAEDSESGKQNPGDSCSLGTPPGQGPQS


Biological target: T1, human IL-10 receptor (hIL-10R alpha and …)
Assay: cell-based or functional assay

Binder	Abs 630 (25 nM)	Abs 630 (100 nM)
IL10R binding molecule of SEQ ID NO: 262 (bispecific antibody) QVQLQESGGGSVQAGGSLRLSCAASRYLYSIDYMAWFRQSPGKEREPVAVIYTASGATFYPDSVKGRFTISQDNAKMTVYLQMNSLKSEDTAMYYCAAVRKTDSYLFDAQSFTYWGQGTQVTVSSGGGSQVQLQESGGGSVQTGGSLRLSCAASGYTYLRGCMGWFRQAPGKEREGVAVMDVVGDRRSYIDSVKGRFTISRDNAANSVYLQMDNLKPEDTAMYYCTAGPNCVGWRSGLDYWGQGTQVTVSSASHHHHHH	1.38 Abs 630	0.4 Abs 630
IL10R binding molecule of SEQ ID NO: 334 (bispecific antibody) QVQLQESGGGSVEAGGSLRLSCAASGYTHSSYCMGWFRQAPGKEREGVAAIDVDGSTTYADSVKGRFTISKDNAKNTLYLQMNSLKPEDTGMYYCAAEFADCSSNYFLPPGAVRYWGQGTQVTVSSGGGSQVQLQESGGGSVQAGGSLRLSCAASRFTYSSYCMGWFRQAPGKEREGVASIDSDGSTSYTDSVKGRFTISKDNAKNTLYLQMNSLKPEDTAMYYCALDLMSTVVPGFCGFLLSAGMDYWGKGTQVTVSSASHHHHHH	1.43 Abs 630	1.14 Abs 630
IL10R binding molecule of SEQ ID NO: 342 (bispecific antibody) QVQLQESGGGSVQAGGSLRLSCAASGYSYSSYCMGWFRQAPGKEREGVATIDSDGMTRYADSVKGRFTISKDNAKNTLYLQMNSLKPEDTAMYYCAAPLYDCDSGAVGRNPPYWGQGTQVTVSSGGGSQVQLQESGGGSVQAGGSLRLSCAASGYTYSMYCMGWFRQAPGKEREGVAQINSDGSTSYADSVKGRFTISKDNAKNTLYLQMNSLKPEDTAMYYCAADSRVYGGSWYERLCGPYTYEYNYWGQGTQVTVSSASHHHHHH	0.45 Abs 630	0.36 Abs 630
IL10R binding molecule of SEQ ID NO: 330 (bispecific antibody) QVQLQESGGGSVQAGGSLRLSCTVSRYTASVNYMGWFRQAPGKEREGVATIFTGAGTTYYANSVKGRFTISRDNAKNTAYLQMNSLKPEDTAIYYCAVDFRGGLLYRPAYEYTYRGQGTQVTVSSGGGSQVQLQESGGGSVQAGGSLRLSCTVSGYTYSSNCMGWFRQAPGKEREGVATIYTGGGNTYYADSVKGRFTISQDNAKNTVYLQMNNLKPEDTAMYYCAAEPLSRVYGGSCPTPTFDYWGQGTQVTVSSASHHHHHH	0.45 Abs 630	0.36 Abs 630
IL10R binding molecule of SEQ ID NO: 333 (bispecific antibody) QVQLQESGGGSVEAGGSLRLSCAASGYTHSSYCMGWFRQAPGKEREGVAAIDVDGSTTYADSVKGRFTISKDNAKNTLYLQMNSLKPEDTGMYYCAAEFADCSSNYFLPPGAVRYWGQGTQVTVSSGGGSQVQLQESGGGSVQAGGSLRLSCAASRYLYSIDYMAWFRQSPGKEREPVAVIYTASGATFYPDSVKGRFTISQDNAKMTVYLQMNSLKSEDTAMYYCAAVRKTDSYLFDAQSFTYWGQGTQVTVSSASHHHHHH	0.49 Abs 630	0.54 Abs 630
IL10R binding molecule of SEQ ID NO: 331 (bispecific antibody) QVQLQESGGGSVQAGGSLRLSCTVSRYTASVNYMGWFRQAPGKEREGVATIFTGAGTTYYANSVKGRFTISRDNAKNTAYLQMNSLKPEDTAIYYCAVDFRGGLLYRPAYEYTYRGQGTQVTVSSGGGSQVQLQESGGGSVQAGGSLRLSCGASGYTYSSYCMGWFRQVPGKEREGVAVIDSDGSTSYADSVKGRFTISKDNGKNTLYLQMNSLKPEDTAMYYCAADLGHYRPPCGVLYLGMDYWGKGTQVTVSSASHHHHHH	0.5 Abs 630	0.41 Abs 630
IL10R binding molecule of SEQ ID NO: 335 (bispecific antibody) QVQLQESGGGSVEAGGSLRLSCAASGYTHSSYCMGWFRQAPGKEREGVAAIDVDGSTTYADSVKGRFTISKDNAKNTLYLQMNSLKPEDTGMYYCAAEFADCSSNYFLPPGAVRYWGQGTQVTVSSGGGSQVQLQESGGGSVQAGGSLRLSCAASGYTYSMYCMGWFRQAPGKEREGVAQINSDGSTSYADSVKGRFTISKDNAKNTLYLQMNSLKPEDTAMYYCAADSRVYGGSWYERLCGPYTYEYNYWGQGTQVTVSSASHHHHHH	0.5 Abs 630	0.44 Abs 630
IL10R binding molecule of SEQ ID NO: 339 (bispecific antibody) QVQLQESGGGSVEAGGSLRLSCAASGYTHSSYCMGWFRQAPGKEREGVAAIDVDGSTTYADSVKGRFTISKDNAKNTLYLQMNSLKPEDTGMYYCAAEFADCSSNYFLPPGAVRYWGQGTQVTVSSGGGSQVQLQESGGGSVQAGGSLRLSCAASGYSNCSYDMTWYRQAPGKEREFVSAIHSDGSTRYADSVKGRFFISQDNAKNTVYLQMNSLKPEDTAMYYCKTDPLHCRAHGGSWYSVRANYWGQGTQVTVSSASHHHHHH	0.49 Abs 630	0.42 Abs 630
IL10R binding molecule of SEQ ID NO: 340 (bispecific antibody) QVQLQESGGGSVQAGGSLRLSCAASGYSYSSYCMGWFRQAPGKEREGVATIDSDGMTRYADSVKGRFTISKDNAKNTLYLQMNSLKPEDTAMYYCAAPLYDCDSGAVGRNPPYWGQGTQVTVSSGGGSQVQLQESGGGSVQAGGSLRLSCAASRYLYSIDYMAWFRQSPGKEREPVAVIYTASGATFYPDSVKGRFTISQDNAKMTVYLQMNSLKSEDTAMYYCAAVRKTDSYLFDAQSFTYWGQGTQVTVSSASHHHHHH	0.46 Abs 630	0.51 Abs 630
IL10R binding molecule of SEQ ID NO: 338 (bispecific antibody) QVQLQESGGGSVEAGGSLRLSCAASGYTHSSYCMGWFRQAPGKEREGVAAIDVDGSTTYADSVKGRFTISKDNAKNTLYLQMNSLKPEDTGMYYCAAEFADCSSNYFLPPGAVRYWGQGTQVTVSSGGGSQVQLQESGGGSVQAGGSLRLSCGASGYTYSSYCMGWFRQVPGKEREGVAVIDSDGSTSYADSVKGRFTISKDNGKNTLYLQMNSLKPEDTAMYYCAADLGHYRPPCGVLYLGMDYWGKGTQVTVSSASHHHHHH	0.51 Abs 630	0.41 Abs 630
IL10R binding molecule of SEQ ID NO: 336 (bispecific antibody) QVQLQESGGGSVEAGGSLRLSCAASGYTHSSYCMGWFRQAPGKEREGVAAIDVDGSTTYADSVKGRFTISKDNAKNTLYLQMNSLKPEDTGMYYCAAEFADCSSNYFLPPGAVRYWGQGTQVTVSSGGGSQVQLQESGGGSVQAGGSLRLSCAVSGYAYSTYCMGWFRQAPGKEREGVAAIDSGGSTSYADSVKGRFTISKDNAKNTLYLRMNSLKPEDTAMYYCAAVPPPPDGGSCLFLGPEIKVSKADFRYWGQGTQVTVSSASHHHHHH	0.54 Abs 630	0.45 Abs 630
IL10R binding molecule of SEQ ID NO: 337 (bispecific antibody) QVQLQESGGGSVEAGGSLRLSCAASGYTHSSYCMGWFRQAPGKEREGVAAIDVDGSTTYADSVKGRFTISKDNAKNTLYLQMNSLKPEDTGMYYCAAEFADCSSNYFLPPGAVRYWGQGTQVTVSSGGGSQVQLQESGGGSVQAGGSLRLSCTVSGYTYSSNCMGWFRQAPGKEREGVATIYTGGGNTYYADSVKGRFTISQDNAKNTVYLQMNNLKPEDTAMYYCAAEPLSRVYGGSCPTPTFDYWGQGTQVTVSSASHHHHHH	0.49 Abs 630	0.4 Abs 630
IL10R binding molecule of SEQ ID NO: 329 (bispecific antibody) QVQLQESGGGSVQAGGSLRLSCTVSRYTASVNYMGWFRQAPGKEREGVATIFTGAGTTYYANSVKGRFTISRDNAKNTAYLQMNSLKPEDTAIYYCAVDFRGGLLYRPAYEYTYRGQGTQVTVSSGGGSQVQLQESGGGSVQAGGSLRLSCAVSGYAYSTYCMGWFRQAPGKEREGVAAIDSGGSTSYADSVKGRFTISKDNAKNTLYLRMNSLKPEDTAMYYCAAVPPPPDGGSCLFLGPEIKVSKADFRYWGQGTQVTVSSASHHHHHH	0.48 Abs 630	0.39 Abs 630
IL10R binding molecule of SEQ ID NO: 332 (bispecific antibody) QVQLQESGGGSVQAGGSLRLSCTVSRYTASVNYMGWFRQAPGKEREGVATIFTGAGTTYYANSVKGRFTISRDNAKNTAYLQMNSLKPEDTAIYYCAVDFRGGLLYRPAYEYTYRGQGTQVTVSSGGGSQVQLQESGGGSVQAGGSLRLSCAASGYSNCSYDMTWYRQAPGKEREFVSAIHSDGSTRYADSVKGRFFISQDNAKNTVYLQMNSLKPEDTAMYYCKTDPLHCRAHGGSWYSVRANYWGQGTQVTVSSASHHHHHH	0.47 Abs 630	0.36 Abs 630
IL10R binding molecule of SEQ ID NO: 263 (bispecific antibody) QVQLQESGGGSVQAGGSLRLSCAASRFTYSSYCMGWFRQAPGKEREGVASIDSDGSTSYTDSVKGRFTISKDNAKNTLYLQMNSLKPEDTAMYYCALDLMSTVVPGFCGFLLSAGMDYWGKGTQVTVSSGGGSQVQLQESGGGSVQAGGSLRLSCAASGYTYSSGCMGWFRQAPGKEREAVAAINSDGSTSYADSVKGRFTISKDNAKNTLYLQMNSLKPEDTAMYYCAAEPYCSGGYPRWSVAEFGYWGQGTQVTVSSASHHHHHH	1.77 Abs 630	1.02 Abs 630
IL10R binding molecule of SEQ ID NO: 341 (bispecific antibody) QVQLQESGGGSVQAGGSLRLSCAASGYSYSSYCMGWFRQAPGKEREGVATIDSDGMTRYADSVKGRFTISKDNAKNTLYLQMNSLKPEDTAMYYCAAPLYDCDSGAVGRNPPYWGQGTQVTVSSGGGSQVQLQESGGGSVQAGGSLRLSCAASRFTYSSYCMGWFRQAPGKEREGVASIDSDGSTSYTDSVKGRFTISKDNAKNTLYLQMNSLKPEDTAMYYCALDLMSTVVPGFCGFLLSAGMDYWGKGTQVTVSSASHHHHHH	0.6 Abs 630	0.48 Abs 630
